Results from patent US20230322924A1 (Janssen / Centocor, published 2023).

B1: C33B124 (antibody, IgG1, V domains shown)
VH: EVQLLESGGGLVQPGGSLRLSCAASRFTFSSYAMTWVRQAPGKGLEWVSTINISGGSTYYADSVKGRFTISRDNSKNTLYLQMNSLRAEDTAVYYCTKGGYSSGPFDYWGQGTLVSVSS
VL: SYELTQPPSVSVSPGQTASITCSGDKLGDKYVRWYQQKTGQSPVLVMYQDSKRPSGIRERFYGSNSGNTATPTISGTQAVDEAEYYCQAWDSSTGVVFGGGTKLTVL
notes: huIgG1 F405L; also called C33F129; C33H73/C33L32
B2: C33B77 (antibody, IgG1, V domains shown)
VH: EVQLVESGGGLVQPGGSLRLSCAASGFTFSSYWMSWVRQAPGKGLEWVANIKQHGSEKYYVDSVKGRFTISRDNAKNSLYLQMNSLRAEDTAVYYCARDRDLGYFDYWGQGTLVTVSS
VL: SYELTQPPSVSVSPGQTASITCSGNKLGAKFASWYQQKPGQSPVLVIYQDNKRPSGIPERFSGSNSGNTATLTISGTQAVDEADYYCQAWDSSTVVFGGGTKLTVL
notes: huIgG1 F405L; also called C33F82; C33H72/C33L40
B3: C33B87 (antibody, IgG1, V domains shown)
VH: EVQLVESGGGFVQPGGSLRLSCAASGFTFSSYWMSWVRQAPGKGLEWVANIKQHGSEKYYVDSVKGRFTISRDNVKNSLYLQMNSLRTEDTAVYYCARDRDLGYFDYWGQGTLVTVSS
VL: SYELTQPPSVSVSPGQTASITCSGDKLGNKYASWYQQKPGQSPVLVIYQDTKRPSGIPERVSGSNSGNTATLTISGTQAMDEADYHCQAWDSSTVVFGGGTKLTVL
notes: huIgG1 F405L; also called C33F92; C33H87/C33L35
B4: C33B915 (antibody, V domains shown)
VH: EVQLVESGGGLVQPGRSLRLSCAASGFTFDDYAMHWVRQVPGEGLEWVSGISWNGGDMVYADSVKGRFTISRDNAKNSLYLQMNSLRPEDTALYYCVKDMPYFDFLTGSDYYYYGMDVWGQGTTVTVSS
VL: SYELTQPPSVSVSPGQTASITCSGDNLGNEHVCWYHQKPGQSPVLVIYQNNKRPSGIPERFSGSNSGNTATLSISGTQATDEADYYCQAWDSTTAVFGGGTKLTVL
notes: OMNIMouse-derived anti-CD33 mAb; same V regions as C33B907; also called C33H255/C33L121; C33F553

Legend:
[1] = target: T1, Human CD33 full length, expressed on HEK293F cells (human, UniProt P20138 18-364); assay: flow cytometry, HEK293F cells expressing human CD33
T1 construct: HEK293F cells transduced with lentivirus containing full length human CD33; also called huCD33
T1 sequence (P20138 18-364 limits assumed): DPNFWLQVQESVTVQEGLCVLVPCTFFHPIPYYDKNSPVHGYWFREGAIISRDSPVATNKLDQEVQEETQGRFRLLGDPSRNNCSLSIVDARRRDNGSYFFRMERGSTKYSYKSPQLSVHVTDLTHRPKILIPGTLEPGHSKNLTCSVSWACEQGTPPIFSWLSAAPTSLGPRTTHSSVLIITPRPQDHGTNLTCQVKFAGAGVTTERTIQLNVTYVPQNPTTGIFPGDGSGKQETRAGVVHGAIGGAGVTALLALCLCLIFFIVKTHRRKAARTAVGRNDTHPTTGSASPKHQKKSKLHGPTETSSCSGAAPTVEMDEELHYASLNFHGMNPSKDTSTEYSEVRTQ

[2] = target: T2, Cyno CD33 full length, expressed on HEK293F cells (cynomolgus monkey); assay: flow cytometry, HEK293F cells expressing cyno CD33
T2 construct: HEK293F cells transduced with lentivirus containing full length cyno CD33 (Genbank XP_005590138.1); also called cyCD33

Human CD33 ECD-HSA [3] = target: Human CD33 ECD-HSA (human); assay: SPRi off-rate screen (IBIS MX96), mAb captured by anti-human Fc; column head prints KD
Cyno CD33 ECD-HSA [4] = target: T3, Cyno CD33 ECD-HSA (cynomolgus monkey); assay: SPRi off-rate screen (IBIS MX96), mAb captured by anti-human Fc; column head prints Cyno CD33 binding KD
T3 construct: Cyno CD33 extracellular domain fused to monomeric human serum albumin and a six-histidine tag; also called C33W1

Cyno CD33 ECD-HSA [5] = target: T3, Cyno CD33 ECD-HSA; assay: ProteOn SPR, mAb captured by anti-human Fc, 1:1 Langmuir fit
Human CD33 ECD-HSA [6] = target: Human CD33 ECD-HSA (human); assay: as above
Human CD33 ECD-HSA [7] = target: T4, Human CD33 ECD-HSA (human); assay: ProteOn SPR, mAb captured on anti-human Fc, antigen as analyte
T4 construct: CD33 ECD fused at the C-terminus to monomeric HSA (C58S) and a six-histidine tag; also called C33W2; huCD33 ECD-HSA
Protocol: (§1) The panel of mAbs was then further characterized for full affinity analysis as well as epitope binning. The binding of anti-CD33 mAbs to recombinant human CD33 ECD-HSA (C33W2) and cyno CD33 ECD-HSA (C33W1) was measured by ProteOn SPR (Bio-Rad). […] Different mAbs were captured on the anti-human Fc IgG surface at 0.25 or 0.5 μg/ml (160-300 RU) in vertical ligand orientation, with the 6th ligand channel as no ligand surface control. Human and cyno CD33-HSA proteins at 0.3 μM concentration in 3-fold dilution series of 5 concentrations flew in as analyte to bind to captured mAbs in the horizontal orientation. A buffer sample was also injected in the 6th channel to monitor the dissociation of captured mAb and baseline stability. […] The raw biding data were processed by double referencing after subtracting the response data from: 1) the inter-spot to correct for the non-specific interactions between the Ag and the empty chip surface; 2) the buffer channel to correct for baseline drifting due to the dissociation of captured mAb surface over time. The processed data at all antigen concentrations for each mAb were globally fit to a 1:1 simple Langmuir binding model to extract estimates of the kinetic (kₒₙ, koff) and affinity (Kd) constants.

Cyno CD33 ECD-HSA [8] = target: T5, Cyno CD33 ECD-HSA (cynomolgus monkey); assay: as above
T5 construct: Cyno CD33 ECD fused to HSA and a six-histidine tag; also called C33W1
Protocol: as §1

Human CD33 full length = target: T6, Human CD33 full length (human, UniProt P20138 18-364); assay: flow cytometry on HEK293F cells expressing human CD33
T6 construct: also called huCD33
T6 sequence (P20138 18-364 limits assumed): as above
Protocol: (§2) The purified antibodies were assessed for binding to stably transfected HEK293F cells expressing human CD33 or cyno CD33 (generation described above) along with the parental HEK293F as negative control. Cells were harvested from tissue culture flasks using non-enzymatic dissociation buffer (Thermo Scientific). The flasks were rinsed twice with PBS and dissociation buffer was added to the flask, and the flask was incubated for 10 minutes at 37° C. until the cells became non-adherent. The cells were centrifuged at 300 g for 5 minutes and resuspended at 1.0×10⁶ cells/ml in staining buffer (Becton Dickinson; Franklin Lakes, NJ). 50,000 cells/well of each cell type was plated in 50 μl of staining buffer in round bottom plates (Becton Dickinson). […] 100 μl staining buffer was added to all wells of each plate, the plates were spun at 300 g for 5 min, the buffer was removed, 200 μl staining buffer was added to all wells of each plate, the plates were spun at 300 g for 5 min, and the buffer was removed. 50 μl of 2 μg/ml of Goat-anti-human Fc AF647 secondary antibody (Jackson Immunoresearch; West Grove, PA) was added to all wells of the plates, and the plates were incubated for 30 min at 4° C. 100 μl staining buffer was added to all wells of the plates, the plates were spun at 300 g for 5 min, and the buffer was removed. 200 μl running buffer (running buffer is Staining buffer, 1 mM EDTA, 0.1% Pluronic Acid) was added to all wells of the plates, the plates were spun at 300 g for 5 min, and the buffer was removed. 30 μl running buffer containing Sytox Green live/dead dye (ThermoFisher) was added to all wells with cells and the plates were read on an iQue IntelliCyt flow cytometer. Cells were gated on forward vs. side scatter to eliminate debris, then on singlets and then on live cells which excluded the Sytox stain. Antibody binding was assessed by the mean fluorescence intensity in the AF647 channel.
(§3) The OmniMouse panel (8 mAbs total) was generated separately and characterized further for binding to cells.

Cyno CD33 full length = target: T7, Cyno CD33 full length (cynomolgus monkey); assay: flow cytometry on HEK293F cells expressing cyno CD33
T7 construct: also called cyCD33
Protocol: as §2, §3

Binder	MFI at 0 nM mAb (background) [1] [MFI]	MFI at 0.6 nM mAb [1] [MFI]	MFI at 6 nM mAb [1] [MFI]	MFI at 60 nM mAb [1] [MFI]	MFI at 0 nM mAb (background) [2] [MFI]	MFI at 0.6 nM mAb [2] [MFI]	MFI at 6 nM mAb [2] [MFI]	MFI at 60 nM mAb [2] [MFI]	koff (Human CD33 ECD-HSA [3]) [s⁻¹]	koff (Cyno CD33 ECD-HSA [4]) [s⁻¹]	Kd (Cyno CD33 ECD-HSA [5]) [pM]	koff (Cyno CD33 ECD-HSA [5]) [s⁻¹]	kon (Cyno CD33 ECD-HSA [5]) [M⁻¹ s⁻¹]	Kd (Human CD33 ECD-HSA [6]) [pM]	koff (Human CD33 ECD-HSA [6]) [s⁻¹]	kon (Human CD33 ECD-HSA [6]) [M⁻¹ s⁻¹]	also measured
B1	172	90.3	126	798	98.4	77.3	132	593	0.000238	0.000477	1010	0.000472	467000	350	0.000124	357000	–
B2	69.5	11500	88700	242000	85.2	3600	11700	17500	0.000337	0.000418	247	0.000266	1.08e+06	320	0.000262	828000	–
B3	73.7	12500	79500	242000	103	3270	12700	19600	0.000352	0.000228	236	0.000264	1.12e+06	600	0.000432	720000	–
B4	–	–	–	–	–	–	–	–	–	–	–	–	–	–	–	–	Kd (Human CD33 ECD-HSA [7]): 4530 pM; koff (Human CD33 ECD-HSA [7]): 0.000989 s⁻¹; kon (Human CD33 ECD-HSA [7]): 218000 M⁻¹ s⁻¹; Kd (Cyno CD33 ECD-HSA [8]): 23.4 pM; koff (Cyno CD33 ECD-HSA [8]): 8.93e-05 s⁻¹; kon (Cyno CD33 ECD-HSA [8]): 3.81e+06 M⁻¹ s⁻¹; MFI at 0 nM (background) (Human CD33 full length): 112 MFI; MFI at 0.6 nM (Human CD33 full length): 138000 MFI; MFI at 6 nM (Human CD33 full length): 363000 MFI; MFI at 60 nM (Human CD33 full length): 390000 MFI; MFI at 0 nM (background) (Cyno CD33 full length): 114 MFI; MFI at 0.6 nM (Cyno CD33 full length): 36200 MFI; MFI at 6 nM (Cyno CD33 full length): 35700 MFI; MFI at 60 nM (Cyno CD33 full length): 37500 MFI
